Measurements as given in patent US20180207294A1, “NON-ALCOHOLIC FATTY LIVER REGULATING FACTOR 14-3-3 PROTEIN” (Korea University Research and Business Foundation, priority 2015, published 2018).
Changes are numbered by the printed parent chain.

Legend:
PPAR-RXR complex = target: T1, PPAR-RXR complex (Homo sapiens, UniProt P37231); assay: Formation of PPAR-RXR complex under 14-3-3 overexpression; type: binding; conditions: overexpression of 14-3-3β and 14-3-3γ; FIG. 8C
T1 sequence (P37231 1-505): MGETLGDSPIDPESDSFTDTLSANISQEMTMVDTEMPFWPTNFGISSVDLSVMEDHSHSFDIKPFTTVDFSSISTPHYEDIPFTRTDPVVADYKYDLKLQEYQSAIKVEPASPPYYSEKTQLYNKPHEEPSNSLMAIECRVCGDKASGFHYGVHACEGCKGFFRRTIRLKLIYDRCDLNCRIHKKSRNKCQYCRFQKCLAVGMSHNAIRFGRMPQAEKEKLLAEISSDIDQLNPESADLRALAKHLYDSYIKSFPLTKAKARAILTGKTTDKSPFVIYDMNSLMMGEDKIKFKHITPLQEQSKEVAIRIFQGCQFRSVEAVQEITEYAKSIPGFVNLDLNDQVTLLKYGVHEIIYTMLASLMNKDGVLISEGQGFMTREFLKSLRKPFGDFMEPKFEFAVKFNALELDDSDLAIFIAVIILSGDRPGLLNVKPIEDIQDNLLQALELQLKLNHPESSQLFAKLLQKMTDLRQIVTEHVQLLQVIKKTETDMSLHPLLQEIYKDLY
T1 sequence (P19793 1-462 partner): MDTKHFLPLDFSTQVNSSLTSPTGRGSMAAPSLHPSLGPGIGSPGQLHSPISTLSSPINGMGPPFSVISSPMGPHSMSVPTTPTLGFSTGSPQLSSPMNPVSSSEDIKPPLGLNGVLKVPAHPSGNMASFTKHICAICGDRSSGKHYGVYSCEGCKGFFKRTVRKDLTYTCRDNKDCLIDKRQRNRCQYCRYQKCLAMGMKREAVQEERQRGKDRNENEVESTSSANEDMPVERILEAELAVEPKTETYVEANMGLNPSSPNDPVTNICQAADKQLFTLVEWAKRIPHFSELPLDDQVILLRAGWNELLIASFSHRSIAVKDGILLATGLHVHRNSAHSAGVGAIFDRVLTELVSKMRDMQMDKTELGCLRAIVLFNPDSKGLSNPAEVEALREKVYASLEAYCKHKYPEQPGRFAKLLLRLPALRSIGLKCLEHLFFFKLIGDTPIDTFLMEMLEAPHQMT

PPARγ2 S273A mutant = target: T2, PPARγ2 S273A mutant (Homo sapiens, UniProt P37231, S273A); assay: aP2 promoter luciferase assay with PPARγ2 S273A mutant (HEK-293T); type: cell-based; conditions: FIG. 4C, 4D
T2 construct: expressed in transfected cells; host or cells: HEK-293T
T2 sequence (P37231 1-505 S273A): T1 sequence (P37231 1-505) with S273A
Protocol: In addition, HEK-293T cells were seeded in a 12-well plate at a density of 1×10^5 cells per each well, and then transfected with an aP2 promoter construct (0.5 μg), Flag-PPARγ2 (S112A) DNA (0.5 μg) or Flag-PPARγ2 (S273A) DNA (0.5 μg), and mGST-14-3-3β DNA (0.5 μg) or mGST-14-3-3γ DNA (0.5 μg) using an E-fection plus reagent (Lugen). A ratio of DNA to the E-fection plus reagent was 1:2, and this method was performed according to a manufacturer's manual. The corresponding cells were washed with ice-cold PBS, and lysed using 80 μl/well of a reporter lysis buffer (Promega, Madison, Wis.), and the lysed cells were centrifuged at 10,000×g and 4° C. for 10 minutes to collect a supernatant, and luciferase activity was measured. As an instrument, Luminometer 20/20n (Turner Biosystems, Sunnyvale, Calif.) was used. For normalization, the cells were cotransfected with pSV40β-galactosidase. For the collected supernatant, β-galactosidase activity was measured and the luciferase activity was revised, and the obtained values were plotted. At this time, a β-galactosidase enzyme analysis system (Promega, Madison, Wis.) was used, and analysis was performed using a DU530 spectrophotometer (Beckman Instruments, Palo Alto, Calif.).

HepG2 cells = assay: PPARγ2 target gene mRNA (PCR) with 14-3-3 overexpression and oleic acid, HepG2 cells; type: cell-based, human; conditions: 14-3-3 overexpression, 200 μM oleic acid 72 hours, FIG. 7A
Protocol: HepG2 cells were seeded in a 6-well plate at a density of 4×10^5 cells per each well, and then transfected with GFP-14-3-3β DNA (4 μg) or GFP-14-3-3γ DNA (4 μg) using an E-fection plus reagent (Lugen). A ratio of DNA to the E-fection plus reagent was 1:2, and this method was performed according to a manufacturer's manual. After transfection, the cells were treated with 200 μM of oleic acid (OA) for 72 hours, and for mRNA extraction, the corresponding cells were lysed with 1 ml/well of TRIzol (Invitrogen), 200 μl of chloroform was added thereto and mixed well, the resultant cells were maintained at room temperature for 5 minutes and then centrifuged at 12,000×g and 4° C. for 15 minutes, the obtained supernatant was mixed with 500 μl of isopropanol and then put on ice for 10 minutes, and the resulting supernatant was centrifuged at 12,000×g and 4° C. for 15 minutes to remove a supernatant, and then pellets were dissolved with tertiary distilled water treated with diethyl pyrocarbonate (DEPC). 2 μg of mRNA was synthesized into cDNA using a Superscript First Strand cDNA Synthesis Kit (Bioneer, Daejeon, South Korea) and the synthesized cDNA as a template was amplified through polymerase chain reaction (PCR) using primers specific to PPARγ2 (SEQ ID NOS: 1 and 2), 14-3-3β (SEQ ID NOS: 3 and 4), 14-3-3γ (SEQ ID NOS: 5 and 6), SREBP-1c, FAT/CD36, and β-actin of humans, and was amplified through real-time PCR using primers specific to SREBP-1c, FAT/CD36, and GAPDH of mice. β-actin and GAPDH were used as controls to see whether mRNAs of the respective cells were compared in the same amount.

change in transcriptional activity of PPARγ2 S273A mutant on 14-3-3 overexpression (PPARγ2 S273A mutant) | Substance | formation of the PPAR-RXR complex (PPAR-RXR complex) | mRNA expression of FAT/CD36 (HepG2 cells) | mRNA expression of SREBP-1c (HepG2 cells)
no change | 14-3-3β: 14-3-3 isoform protein, overexpressed by DNA transfection; regulating factor that increases transcriptional activity of PPARγ2 | did not affect the formation of the PPAR-RXR complex | further increased | further increased
no change | 14-3-3γ: 14-3-3 isoform protein, overexpressed by DNA transfection; regulating factor that decreases transcriptional activity of PPARγ2 | did not affect the formation of the PPAR-RXR complex | reduced | reduced
